Publication PMC6689050, “A switch element in the autophagy E2 Atg3 mediates allosteric regulation across the lipidation cascade” (Nature Communications, 2019)
Numbering of substitutions follows the chain as printed. Names and notes keep the numbering of the source. One block for each binder: values may come before it.

What was measured:
[1] = molecular target: T1, Atg3^∆FR (yeast Atg3 lacking the flexible region) (S. cerevisiae, UniProt P40344 1-310, ∆FR (FR, residues 85–159)); experiment: NMR
T1 sequence: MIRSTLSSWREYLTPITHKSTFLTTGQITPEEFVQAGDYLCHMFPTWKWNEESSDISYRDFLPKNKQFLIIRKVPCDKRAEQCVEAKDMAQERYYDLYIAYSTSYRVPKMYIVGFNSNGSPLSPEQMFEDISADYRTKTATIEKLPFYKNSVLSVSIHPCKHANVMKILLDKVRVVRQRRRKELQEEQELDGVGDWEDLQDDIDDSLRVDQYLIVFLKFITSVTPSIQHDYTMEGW

[2] = molecular target: T1, Atg3^∆FR (yeast Atg3 lacking the …); experiment: NMR; average over E123IR residues
[3] = molecular target: T2, Atg12–Atg5 conjugate (His-Atg12 100–186 conjugated to Atg5 1–284), minimal yeast autophagy E3 (S. cerevisiae, UniProt P38316 100-186; Q12380 1-284, conjugated to Atg5 (Atg12–Atg5 conjugate) | conjugated to Atg12 (Atg12–Atg5 conjugate)); experiment: NMR titration; 0.1 mM 15N-labeled Atg3^FR 86–159 titrated with 0–150 µM unlabeled Atg12–Atg5; [15N,1H] TROSY; 25 °C, 20 mM MES pH 6.5, 100 mM NaCl, 10% D2O; conditions: both partners purified
T2 construct: Atg12, S. cerevisiae, residues 100–186; Atg5, S. cerevisiae, residues 1–284, untagged; Covalent conjugate formed in E. coli by co-expressed Atg7 and Atg10; No removal of the His tag is told; also called His-Atg12–Atg5; minimal yeast E3; source: E. coli BL21, co-expressed with Atg7 1–630 and Atg10; purified (Ni-NTA, cation exchange); not shown: His6, N-terminal, kept
T2 sequence (looked up) 1: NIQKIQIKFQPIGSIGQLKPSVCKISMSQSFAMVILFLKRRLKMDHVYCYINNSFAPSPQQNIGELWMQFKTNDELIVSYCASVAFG
T2 sequence (looked up) 2: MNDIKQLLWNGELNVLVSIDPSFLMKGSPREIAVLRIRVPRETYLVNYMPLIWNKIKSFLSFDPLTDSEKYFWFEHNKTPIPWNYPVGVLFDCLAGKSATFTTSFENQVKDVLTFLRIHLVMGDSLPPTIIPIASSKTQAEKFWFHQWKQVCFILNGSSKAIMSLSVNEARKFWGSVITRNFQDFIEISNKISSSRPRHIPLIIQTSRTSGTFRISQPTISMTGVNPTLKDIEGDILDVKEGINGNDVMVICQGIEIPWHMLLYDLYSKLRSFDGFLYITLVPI

[4] = molecular target: T2, Atg12–Atg5 conjugate (His-Atg12 100–186 …); experiment: SEC; purified His-Atg12–Atg5 combined with Atg16 1–46 in a 1:2 molar ratio, Superdex-200; peak fractions of the complex harvested; conditions: both partners purified
[5] = molecular target: T3, Atg3^FR (residues 86–159), the intrinsically disordered flexible region of yeast Atg3 (S. cerevisiae, UniProt P40344 86-159); experiment: NMR; average over E123IR residues; Atg12–Atg5 with Atg16
T3 chain: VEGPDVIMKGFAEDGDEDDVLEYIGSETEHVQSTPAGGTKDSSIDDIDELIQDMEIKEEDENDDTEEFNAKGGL

B1: Atg3^FR 86–159 mutant I132D, L135D, I136D (printed elsewhere as I136R) (domain or fragment)
chain: T3 chain with I47D, L50D, I51D
Kd [1]: 994 µM

B4: Atg12–Atg5 conjugate (His-Atg12 100–186 conjugated to Atg5 1–284), minimal yeast autophagy E3 (complex)
chain 1: T2 sequence (looked up) 1
chain 2: T2 sequence (looked up) 2
modifications: conjugated to Atg5 (Atg12–Atg5 conjugate) | conjugated to Atg12 (Atg12–Atg5 conjugate)
Kd [5]: 69 µM

Next, values leading:

Kd [2]: 238 µM
binding result [3]: binds
B2: Atg3^FR (residues 86–159), the intrinsically disordered flexible region of yeast Atg3 (domain or fragment, S. cerevisiae, UniProt P40344 86-159, looked up)
chain: T3 chain
notes: Atg3 (autophagy E2), S. cerevisiae, flexible region, residues 86–159; 15N-labelled (or 13C,15N-labelled) for NMR; The introduction gives the FR as residues 85–159, the construct is 86–159; also called Atg3^FR 86–159; holds the Atg3^E123IR element; source: purified

binding result [4]: binds
B3: Atg16 (residues 1–46) (domain or fragment, S. cerevisiae, UniProt Q03818 1-46, looked up)
chain: MGNFIITERKKAKEERSNPQTDSMDDLLIRRLTDRNDKEAHLNELF
notes: Atg16, S. cerevisiae, residues 1–46; also called Atg16 1–46; source: purified
